# According to patent publication US20050202033A1:
# Molecular target: recombinant human or murine heat shock protein 70 (hsp70) (human or murine) (UniProt P0DMV8)
# Assay: on hsp70
# Chain of recombinant human or murine heat shock protein 70 (hsp70) (human or murine) (P0DMV8 whole entry): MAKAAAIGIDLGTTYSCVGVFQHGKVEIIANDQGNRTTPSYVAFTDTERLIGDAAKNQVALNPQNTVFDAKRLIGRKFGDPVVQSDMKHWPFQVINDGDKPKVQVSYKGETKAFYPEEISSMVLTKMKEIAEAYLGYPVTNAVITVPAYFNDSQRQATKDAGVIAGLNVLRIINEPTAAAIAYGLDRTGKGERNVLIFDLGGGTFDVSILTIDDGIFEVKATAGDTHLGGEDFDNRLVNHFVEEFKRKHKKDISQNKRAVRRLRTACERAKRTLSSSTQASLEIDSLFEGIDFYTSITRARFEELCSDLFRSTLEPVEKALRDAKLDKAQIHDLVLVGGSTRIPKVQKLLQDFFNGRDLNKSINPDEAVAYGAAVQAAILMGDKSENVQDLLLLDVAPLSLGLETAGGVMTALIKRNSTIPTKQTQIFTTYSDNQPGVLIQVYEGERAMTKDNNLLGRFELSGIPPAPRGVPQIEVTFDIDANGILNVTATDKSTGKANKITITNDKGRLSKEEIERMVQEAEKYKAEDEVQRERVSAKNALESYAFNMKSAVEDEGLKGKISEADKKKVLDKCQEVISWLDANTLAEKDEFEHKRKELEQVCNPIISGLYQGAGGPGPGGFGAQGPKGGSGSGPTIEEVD
row,Molecule,Kd
1,[…] (HIV Pol: 464-472) (peptide; other documents disagree on this pair),83 µM

# Molecular target: recombinant human or murine heat shock protein 70 (hsp70) (human or murine) (UniProt P0DMV8)
# Assay: binding inhibition assay (Hill plot) against tritiated … on hsp70
row,Molecule,Kd
1,[…] (HPV Strain 16 E7 11-20) (peptide; other documents disagree on this pair),91 µM

# Molecular target: T1, recombinant human or murine heat shock protein 70 (hsp70) (human or murine), P0DMV8
# Assay: binding inhibition assay as in Example 2, on hsp70
# T1 sequence (P0DMV8 whole entry): as above
row,Molecule,Kd
1,YMDGTMSQVGSGNLLRLTGW (modifications not checked),1.8 µM
2,IMDQVPFSVGSGNLLRLTGW (modifications not checked),0.9 µM
3,YLEPGPVTV (modifications not checked) [… (GP100: 280-288 (288V))],71 µM
4,KASEKIFYVGSGNLLRLTGW (modifications not checked),1.4 µM
5,"IMDQVPFSV (modifications not checked) [… (Gp100 209-217, T210M)]",2570 µM
6,KASEKIFYV (modifications not checked) [… (SSX-2: 41-49)],57 µM
7,GLYDGMEHLGSGNLLRLTGW (modifications not checked),1.1 µM
8,"YMDGTMSQV (modifications not checked) [… (Tyrosinase 368-376, 370D)]",209 µM
9,SLLMWITQVGSGNLLRLTGW (modifications not checked),2.2 µM
10,SVYDFFVWLGSGNLLRLTGW (modifications not checked),2.9 µM
11,GLYDGMEHL (modifications not checked) [… (MAGE-10: 254-262)],48 µM
12,SVYDFFVWL (modifications not checked) [… (Trp-2: 180-188)],81 µM
13,YLEPGPVTVGSGNLLRLTGW (modifications not checked),2 µM

# Molecular target: T1, recombinant human or murine heat shock …
# Assay: on hsp70
row,Molecule,Kd
1,AFHHVARELGSGNLLRLTGW (modifications not checked),2.1 µM
2,VLDVGDAYFSV (modifications not checked) [… (HIV Pol: 263-273)],110 µM
3,ILKEPVHGVGSGNLLRLTGW (modifications not checked),1.2 µM
4,SIINFEKL (modifications not checked) [SIINFEKL (ovalbumin amino acids 257-264)],235 µM
5,AFHHVAREL (modifications not checked),84 µM
6,VIYQYMDDL (modifications not checked) [… (HIV Pol: 334-342)],91 µM
7,SLFNTVATLGSGNLLRLTGW (modifications not checked),1.9 µM
8,AIIRILQQL (modifications not checked) [… (HIV Vpr: 59-67)],93 µM
9,VIYQYMDDLGSGNLLRLTGW (modifications not checked),1.7 µM
10,VLDVGDAYFSVGSGNLLRLTGW (modifications not checked),2 µM
11,AIIRILQQLGSGNLLRLTGW (modifications not checked) [ALIRJ… (as printed; hybrid antigen of the Vpr: 59-67 epitope)],0.6 µM
12,ALKHRAYELGSGNLLRLTGW (modifications not checked),1.1 µM
13,SLYNTVATLGSGNLLRLTGW (modifications not checked),1.8 µM
14,SLFNTVATL (modifications not checked) [… (HIV Gag/p17: 77-85 (79F))],35 µM
15,NLLRLTGWGSGSIINFEKL (modifications not checked),1.6 µM
16,RGYVYQGL (modifications not checked) [RGYVYQGL (VSV nucleoprotein amino acids 52-59)],82 µM
17,ALKHRAYEL (modifications not checked),97 µM

# Molecular target: T1, recombinant human or murine heat shock …
# Assay: binding inhibition assay (Hill plot) against tritiated … on hsp70
row,Molecule,Kd
1,YMDGTMSQVGSGNLLRLTGW (modifications not checked),2.65 µM
2,TLGIVCPI (modifications not checked) [TLGIVCPI (HPV Strain 16 E7 86-93)],187 µM
3,ALFDIESKVGSGNLLRLTGW (modifications not checked) [PSMA P2 hybrid antigen with NLLRLTGW],1.3 µM
4,SIINFEKLGSGNLLRLTGW (modifications not checked) [SIINFEKLgsgNLLRLTGW],1.2 µM
5,IMDQVPFSVGSGNLLRLTGW (modifications not checked),3.1 µM
6,HWDFAWPWGSGSIINFEKL (modifications not checked) [HWDFAWPWgsgSIINFEKL],4.3 µM
7,"IMDQVPFSV (modifications not checked) [… (Gp100 209-217, T210M)]",2560 µM
8,YMDGTMSQVGSGHWDFAWPW (modifications not checked),24 µM
9,TLGIVCPIGSGNLLRLTGW (modifications not checked) [TLGIVCPIgsgNLLRLTGW],5.2 µM
10,SIINFEKLGSGFYQLALTW (modifications not checked) [SIINFEKLgsgFYQLALTW],1.43 µM
11,HWDFAWPW (modifications not checked),120 µM
12,SIINFEKL (modifications not checked) [SIINFEKL (ovalbumin amino acids 257-264)],279 µM
13,HWDFAWPWGSGYMDGTMSQV (modifications not checked) [HWDFAWPWgsg…],29 µM
14,FYQLALTW (modifications not checked),5.9 µM
15,TLGIVCPIGSGHWDFAWPW (modifications not checked) [TLGIVCPIgsgHWDFAWPW],9.1 µM
16,SIINFEKLGSGHWDFAWPW (modifications not checked) [SIINFEKLgsgHWDFAWPW],40 µM
17,"YMDGTMSQV (modifications not checked) [… (Tyrosinase 368-376, 370D)]",204 µM
18,ALFDIESKV (modifications not checked) [… (Prostate Specific Membrane Antigen 771-779)],145 µM
19,SIINFEKLGSGRKLFFNLRW (modifications not checked) [SIINFEKLgsg…],7 µM
20,YMLDLQPETTGSGHWDFAWPW (modifications not checked),27 µM
21,NLLRLTGW (modifications not checked),1.85 µM
22,IMDQVPFSVGSGHWDFAWPW (modifications not checked),155 µM
23,RKLFFNLRW (modifications not checked),15 µM

# Molecular target: T1, recombinant human or murine heat shock …
# Assay: binding inhibition assay (Hill plot) or Scatchard analysis of the reference on hsp70
row,Molecule,Kd
1,ALFDIESKVGSGHWDFAWPW (modifications not checked),22 µM

# Molecular target: T1, recombinant human or murine heat shock …
# Assay: competition against a labeled reporter peptide on HSP70; Kd calculated from IC50 (Hill plot)
row,Molecule,fold increase in affinity over … (SEQ ID NO:368)
1,SIINFEKLGSGNLLRLTGW (modifications not checked) [SIINFEKLgsgNLLRLTGW],15 fold
